Measurements published in patent publication US20180155451A1 (published 2018).

T1: FcγRIIa R (extracellular domain with a His tag at the C terminus) (human, UniProt P12318 34-217)
T1 construct: extracellular domain; expressed in FreeStyle293 cells; also called FcgRIIa R; FcγRIIa type R; not shown: His tag at the C terminus
T1 sequence (looked up): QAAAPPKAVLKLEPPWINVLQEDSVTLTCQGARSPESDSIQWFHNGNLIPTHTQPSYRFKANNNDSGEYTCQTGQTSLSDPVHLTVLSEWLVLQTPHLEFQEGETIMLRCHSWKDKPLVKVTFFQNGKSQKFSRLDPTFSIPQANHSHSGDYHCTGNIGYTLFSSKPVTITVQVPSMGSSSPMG


What follows are binders tested against T1, FcγRIIa R (extracellular domain with a …) (assay: SPR Biacore, relative binding).

He/Con_2aR	Binder
109 % of GpH7-A5/GpH7-B3/GpL16-k0 (=100)	GpH7-A5/GpH7-B3 variant S337_07I/GpL16-k0 (antibody, human IgG1, kappa, heterodimerized; mutation in one H chain; also called He Ab) heavy 1: not shown heavy 2: not shown light: DIVMTQSPLSLPVTPGEPASISCQASESLVHSNRNTYLHWYLQKPGQSPQLLIYKVSNRFSGVPDRFSGSGSGTDFTLKISRVEAEDVGVYYCSQNTHVPPTFGQGTKVEIERTVAAPSVFIFPPSDEQLKSGTASVVCLLNNFYPREAKVQWKVDNALQSGNSQESVTEQDSKDSTYSLSSTLTLSKADYEKHKVYACEVTHQGLSSPVTKSFNRGEC
109 % of GpH7-A5/GpH7-B3/GpL16-k0 (=100)	GpH7-A5/GpH7-B3 variant T335_07I/GpL16-k0 (antibody, human IgG1, kappa, heterodimerized; mutation in one H chain; also called He Ab) heavy 1: not shown heavy 2: not shown light: DIVMTQSPLSLPVTPGEPASISCQASESLVHSNRNTYLHWYLQKPGQSPQLLIYKVSNRFSGVPDRFSGSGSGTDFTLKISRVEAEDVGVYYCSQNTHVPPTFGQGTKVEIERTVAAPSVFIFPPSDEQLKSGTASVVCLLNNFYPREAKVQWKVDNALQSGNSQESVTEQDSKDSTYSLSSTLTLSKADYEKHKVYACEVTHQGLSSPVTKSFNRGEC
111 % of GpH7-A5/GpH7-B3/GpL16-k0 (=100)	GpH7-A5/GpH7-B3 variant T335_10E/GpL16-k0 (antibody, human IgG1, kappa, heterodimerized; mutation in one H chain; also called He Ab) heavy 1: not shown heavy 2: not shown light: DIVMTQSPLSLPVTPGEPASISCQASESLVHSNRNTYLHWYLQKPGQSPQLLIYKVSNRFSGVPDRFSGSGSGTDFTLKISRVEAEDVGVYYCSQNTHVPPTFGQGTKVEIERTVAAPSVFIFPPSDEQLKSGTASVVCLLNNFYPREAKVQWKVDNALQSGNSQESVTEQDSKDSTYSLSSTLTLSKADYEKHKVYACEVTHQGLSSPVTKSFNRGEC
112 % of GpH7-A5/GpH7-B3/GpL16-k0 (=100)	GpH7-A5/GpH7-B3 variant S337_10E/GpL16-k0 (antibody, human IgG1, kappa, heterodimerized; mutation in one H chain; also called He Ab) heavy 1: not shown heavy 2: not shown light: DIVMTQSPLSLPVTPGEPASISCQASESLVHSNRNTYLHWYLQKPGQSPQLLIYKVSNRFSGVPDRFSGSGSGTDFTLKISRVEAEDVGVYYCSQNTHVPPTFGQGTKVEIERTVAAPSVFIFPPSDEQLKSGTASVVCLLNNFYPREAKVQWKVDNALQSGNSQESVTEQDSKDSTYSLSSTLTLSKADYEKHKVYACEVTHQGLSSPVTKSFNRGEC
104 % of GpH7-A5/GpH7-B3/GpL16-k0 (=100)	GpH7-A5/GpH7-B3 variant T335_05P/GpL16-k0 (antibody, human IgG1, kappa, heterodimerized; mutation in one H chain; also called He Ab) heavy 1: not shown heavy 2: not shown light: DIVMTQSPLSLPVTPGEPASISCQASESLVHSNRNTYLHWYLQKPGQSPQLLIYKVSNRFSGVPDRFSGSGSGTDFTLKISRVEAEDVGVYYCSQNTHVPPTFGQGTKVEIERTVAAPSVFIFPPSDEQLKSGTASVVCLLNNFYPREAKVQWKVDNALQSGNSQESVTEQDSKDSTYSLSSTLTLSKADYEKHKVYACEVTHQGLSSPVTKSFNRGEC
107 % of GpH7-A5/GpH7-B3/GpL16-k0 (=100)	GpH7-A5/GpH7-B3 variant S337_18N/GpL16-k0 (antibody, human IgG1, kappa, heterodimerized; mutation in one H chain; also called He Ab) heavy 1: not shown heavy 2: not shown light: DIVMTQSPLSLPVTPGEPASISCQASESLVHSNRNTYLHWYLQKPGQSPQLLIYKVSNRFSGVPDRFSGSGSGTDFTLKISRVEAEDVGVYYCSQNTHVPPTFGQGTKVEIERTVAAPSVFIFPPSDEQLKSGTASVVCLLNNFYPREAKVQWKVDNALQSGNSQESVTEQDSKDSTYSLSSTLTLSKADYEKHKVYACEVTHQGLSSPVTKSFNRGEC
102 % of GpH7-A5/GpH7-B3/GpL16-k0 (=100)	GpH7-A5/GpH7-B3 variant T335_02A/GpL16-k0 (antibody, human IgG1, kappa, heterodimerized; mutation in one H chain; also called He Ab) heavy 1: not shown heavy 2: not shown light: DIVMTQSPLSLPVTPGEPASISCQASESLVHSNRNTYLHWYLQKPGQSPQLLIYKVSNRFSGVPDRFSGSGSGTDFTLKISRVEAEDVGVYYCSQNTHVPPTFGQGTKVEIERTVAAPSVFIFPPSDEQLKSGTASVVCLLNNFYPREAKVQWKVDNALQSGNSQESVTEQDSKDSTYSLSSTLTLSKADYEKHKVYACEVTHQGLSSPVTKSFNRGEC
105 % of GpH7-A5/GpH7-B3/GpL16-k0 (=100)	GpH7-A5/GpH7-B3 variant S337_15Y/GpL16-k0 (antibody, human IgG1, kappa, heterodimerized; mutation in one H chain; also called He Ab) heavy 1: not shown heavy 2: not shown light: DIVMTQSPLSLPVTPGEPASISCQASESLVHSNRNTYLHWYLQKPGQSPQLLIYKVSNRFSGVPDRFSGSGSGTDFTLKISRVEAEDVGVYYCSQNTHVPPTFGQGTKVEIERTVAAPSVFIFPPSDEQLKSGTASVVCLLNNFYPREAKVQWKVDNALQSGNSQESVTEQDSKDSTYSLSSTLTLSKADYEKHKVYACEVTHQGLSSPVTKSFNRGEC
109 % of GpH7-A5/GpH7-B3/GpL16-k0 (=100)	GpH7-A5/GpH7-B3 variant S337_16H/GpL16-k0 (antibody, human IgG1, kappa, heterodimerized; mutation in one H chain; also called He Ab) heavy 1: not shown heavy 2: not shown light: DIVMTQSPLSLPVTPGEPASISCQASESLVHSNRNTYLHWYLQKPGQSPQLLIYKVSNRFSGVPDRFSGSGSGTDFTLKISRVEAEDVGVYYCSQNTHVPPTFGQGTKVEIERTVAAPSVFIFPPSDEQLKSGTASVVCLLNNFYPREAKVQWKVDNALQSGNSQESVTEQDSKDSTYSLSSTLTLSKADYEKHKVYACEVTHQGLSSPVTKSFNRGEC
115 % of GpH7-A5/GpH7-B3/GpL16-k0 (=100)	GpH7-A5/GpH7-B3 variant S337_09D/GpL16-k0 (antibody, human IgG1, kappa, heterodimerized; mutation in one H chain; also called He Ab) heavy 1: not shown heavy 2: not shown light: DIVMTQSPLSLPVTPGEPASISCQASESLVHSNRNTYLHWYLQKPGQSPQLLIYKVSNRFSGVPDRFSGSGSGTDFTLKISRVEAEDVGVYYCSQNTHVPPTFGQGTKVEIERTVAAPSVFIFPPSDEQLKSGTASVVCLLNNFYPREAKVQWKVDNALQSGNSQESVTEQDSKDSTYSLSSTLTLSKADYEKHKVYACEVTHQGLSSPVTKSFNRGEC
110 % of GpH7-A5/GpH7-B3/GpL16-k0 (=100)	GpH7-A5/GpH7-B3 variant S337_20W/GpL16-k0 (antibody, human IgG1, kappa, heterodimerized; mutation in one H chain; also called He Ab) heavy 1: not shown heavy 2: not shown light: DIVMTQSPLSLPVTPGEPASISCQASESLVHSNRNTYLHWYLQKPGQSPQLLIYKVSNRFSGVPDRFSGSGSGTDFTLKISRVEAEDVGVYYCSQNTHVPPTFGQGTKVEIERTVAAPSVFIFPPSDEQLKSGTASVVCLLNNFYPREAKVQWKVDNALQSGNSQESVTEQDSKDSTYSLSSTLTLSKADYEKHKVYACEVTHQGLSSPVTKSFNRGEC
